From article PMC9482650, “Quantitative fragmentomics allow affinity mapping of interactomes” (Nature Communications, 2022)

B1: LRRC4B, Q9NT99 (peptide)
chain: SKENVQETQI
B2: KCNJ1, P48048 (peptide)
chain: EVNETDDTKM
B3: BAZ1A, Q9NRL2 (peptide)
chain: TPPAAKKSRI
B4: KCNA1, Q09470 (peptide)
chain: VNKSKLLTDV

Assays:
Assay in all cases: holdup assay
Set-up in all cases: key: below the threshold = too weak to quantify, mostly under pKd 3.1 to 4
Conditions in all cases: plain residues with an end cap or a label only (N-terminal biotin on a linker: ado-ado)
GORASP2, Q9H8Y8 = target: GORASP2, Q9H8Y8
RAPGEF6, Q8TEU7 = target: T1, RAPGEF6, Q8TEU7
T1 sequence (Q8TEU7 525-625, limits assumed, looked up): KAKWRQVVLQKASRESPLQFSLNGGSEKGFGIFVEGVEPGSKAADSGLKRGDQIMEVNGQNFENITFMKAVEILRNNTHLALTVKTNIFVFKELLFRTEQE

MAGI1_1, Q96QZ7 = target: MAGI1_1, Q96QZ7
GRIP1_5, Q9Y3R0 = target: T2, GRIP1_5, Q9Y3R0
T2 sequence (Q9Y3R0 568-668, limits assumed, looked up): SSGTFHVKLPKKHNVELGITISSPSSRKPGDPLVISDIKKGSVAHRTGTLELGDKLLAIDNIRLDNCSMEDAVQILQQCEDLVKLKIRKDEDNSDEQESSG

MAST2, Q6P0Q8 = target: MAST2, Q6P0Q8
RHPN1, Q8TCX5 = target: T3, RHPN1, Q8TCX5
T3 sequence (Q8TCX5 508-602, limits assumed, looked up): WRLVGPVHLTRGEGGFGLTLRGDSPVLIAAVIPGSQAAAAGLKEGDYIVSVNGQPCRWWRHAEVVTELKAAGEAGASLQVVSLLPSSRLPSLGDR

SCRIB_1, Q14160 = target: SCRIB_1, Q14160
PDLIM1, O00151 = target: PDLIM1, O00151
PDZRN4_1, Q6ZMN7 = target: PDZRN4_1, Q6ZMN7
NHERF4_2, Q86UT5 = target: NHERF4_2, Q86UT5
DLG4_2, P78352 = target: DLG4_2, P78352
GRIP1_2, Q9Y3R0 = target: T4, GRIP1_2, Q9Y3R0
T4 sequence (Q9Y3R0 145-248, limits assumed, looked up): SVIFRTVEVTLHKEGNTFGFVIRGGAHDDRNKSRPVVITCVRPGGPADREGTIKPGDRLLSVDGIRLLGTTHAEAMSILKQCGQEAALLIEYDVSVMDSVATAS

LNX1_3, Q8TBB1 = target: LNX1_3, Q8TBB1
LIN7A, O14910 = target: T5, LIN7A, O14910
T5 sequence (O14910 103-200, limits assumed, looked up): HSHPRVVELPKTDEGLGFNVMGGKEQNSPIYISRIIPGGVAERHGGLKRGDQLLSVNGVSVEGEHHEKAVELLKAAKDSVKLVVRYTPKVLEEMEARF

DLG4_3, P78352 = target: DLG4_3, P78352
DFNB31_3, Q9P202 = target: T6, DFNB31_3, Q9P202
T6 sequence (Q9P202 811-907, limits assumed, looked up): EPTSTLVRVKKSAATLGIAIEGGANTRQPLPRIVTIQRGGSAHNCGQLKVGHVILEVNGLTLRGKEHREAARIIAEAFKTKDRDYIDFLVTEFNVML

NHERF4_4, Q86UT5 = target: NHERF4_4, Q86UT5
GIPC2, Q8TF65 = target: GIPC2, Q8TF65
RADIL, Q96JH8 = target: T7, RADIL, Q96JH8
T7 sequence (Q96JH8 971-1071, limits assumed, looked up): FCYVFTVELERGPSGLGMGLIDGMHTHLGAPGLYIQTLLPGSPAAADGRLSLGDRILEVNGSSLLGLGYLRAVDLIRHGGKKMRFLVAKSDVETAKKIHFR

LNX1_1, Q8TBB1 = target: LNX1_1, Q8TBB1
HTRA1, Q92743 = target: HTRA1, Q92743
GRIP1_3, Q9Y3R0 = target: T8, GRIP1_3, Q9Y3R0
T8 sequence (Q9Y3R0 247-346, limits assumed, looked up): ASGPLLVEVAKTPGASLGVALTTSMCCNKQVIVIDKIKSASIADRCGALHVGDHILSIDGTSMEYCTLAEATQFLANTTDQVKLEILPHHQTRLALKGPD

Inadl_10, Q8NI35 = target: Inadl_10, Q8NI35
PDZRN3_1, Q9UPQ7 = target: T9, PDZRN3_1, Q9UPQ7
T9 sequence (Q9UPQ7 244-349, limits assumed, looked up): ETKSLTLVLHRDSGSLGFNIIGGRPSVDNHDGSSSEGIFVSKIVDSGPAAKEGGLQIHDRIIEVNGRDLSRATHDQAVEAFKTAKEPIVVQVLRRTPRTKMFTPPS

DVL3, Q92997 = target: T10, DVL3, Q92997
T10 sequence (Q92997 244-331, limits assumed, looked up): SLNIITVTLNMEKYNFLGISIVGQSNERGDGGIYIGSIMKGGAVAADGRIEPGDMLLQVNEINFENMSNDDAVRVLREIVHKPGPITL

GORASP1, Q9BQQ3 = target: GORASP1, Q9BQQ3
TJP2_1, Q9UDY2 = target: TJP2_1, Q9UDY2
Chain of TJP2_1, Q9UDY2 (Q9UDY2 24-128): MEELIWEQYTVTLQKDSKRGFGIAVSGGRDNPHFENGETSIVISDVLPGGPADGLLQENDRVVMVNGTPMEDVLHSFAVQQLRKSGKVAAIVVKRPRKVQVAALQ

Chain of LNX1_3, Q8TBB1 (Q8TBB1 500-596): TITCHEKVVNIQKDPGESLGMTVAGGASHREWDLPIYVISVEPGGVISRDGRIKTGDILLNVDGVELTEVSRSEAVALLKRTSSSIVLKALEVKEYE
Chain of GORASP1, Q9BQQ3 (Q9BQQ3 1-208): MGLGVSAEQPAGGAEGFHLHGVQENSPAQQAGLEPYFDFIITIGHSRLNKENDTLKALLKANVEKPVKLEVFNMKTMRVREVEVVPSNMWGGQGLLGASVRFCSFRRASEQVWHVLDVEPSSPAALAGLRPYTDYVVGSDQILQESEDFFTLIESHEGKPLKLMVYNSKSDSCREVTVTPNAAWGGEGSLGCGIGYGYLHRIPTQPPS
Chain of MAST2, Q6P0Q8 (Q6P0Q8 1099-1202): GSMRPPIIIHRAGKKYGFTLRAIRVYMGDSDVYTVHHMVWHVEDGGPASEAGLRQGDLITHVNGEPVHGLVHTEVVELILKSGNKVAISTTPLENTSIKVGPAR
Chain of SCRIB_1, Q14160 (Q14160 718-814): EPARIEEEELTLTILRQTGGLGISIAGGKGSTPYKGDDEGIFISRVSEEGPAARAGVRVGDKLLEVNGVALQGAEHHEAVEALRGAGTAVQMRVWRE
Chain of HTRA1, Q92743 (Q92743 360-477): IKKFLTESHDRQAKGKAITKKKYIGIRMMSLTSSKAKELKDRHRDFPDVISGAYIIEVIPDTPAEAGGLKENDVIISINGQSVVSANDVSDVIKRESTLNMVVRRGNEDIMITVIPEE
Chain of PDZRN4_1, Q6ZMN7 (Q6ZMN7 213-318): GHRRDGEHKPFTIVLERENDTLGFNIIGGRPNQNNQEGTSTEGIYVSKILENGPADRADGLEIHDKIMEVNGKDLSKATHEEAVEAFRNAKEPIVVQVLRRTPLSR
Chain of GIPC2, Q8TF65 (Q8TF65 112-203): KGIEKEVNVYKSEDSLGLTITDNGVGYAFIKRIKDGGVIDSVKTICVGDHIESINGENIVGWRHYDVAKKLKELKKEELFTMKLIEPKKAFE
Chain of LNX1_1, Q8TBB1 (Q8TBB1 261-371): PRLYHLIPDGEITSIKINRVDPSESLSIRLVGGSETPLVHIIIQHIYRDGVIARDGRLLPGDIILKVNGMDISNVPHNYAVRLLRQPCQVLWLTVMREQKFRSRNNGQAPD
Chain of NHERF4_2, Q86UT5 (Q86UT5 220-308): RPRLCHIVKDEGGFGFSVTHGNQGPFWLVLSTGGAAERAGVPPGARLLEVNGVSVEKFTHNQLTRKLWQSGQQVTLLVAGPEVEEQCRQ
Chain of DLG4_3, P78352 (P78352 306-403): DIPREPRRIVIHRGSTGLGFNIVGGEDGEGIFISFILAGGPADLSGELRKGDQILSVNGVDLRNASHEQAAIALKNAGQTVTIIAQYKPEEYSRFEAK
Chain of PDLIM1, O00151 (O00151 1-87): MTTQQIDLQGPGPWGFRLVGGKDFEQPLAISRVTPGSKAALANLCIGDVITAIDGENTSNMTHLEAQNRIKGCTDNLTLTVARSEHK
Chain of NHERF4_4, Q86UT5 (Q86UT5 464-550): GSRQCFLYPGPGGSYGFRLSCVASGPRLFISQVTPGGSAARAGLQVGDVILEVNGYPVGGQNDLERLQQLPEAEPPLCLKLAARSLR
Chain of Inadl_10, Q8NI35 (Q8NI35 1673-1763): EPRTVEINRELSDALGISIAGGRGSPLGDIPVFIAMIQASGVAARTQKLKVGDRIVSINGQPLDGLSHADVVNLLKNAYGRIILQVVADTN
Chain of MAGI1_1, Q96QZ7 (Q96QZ7 1-106): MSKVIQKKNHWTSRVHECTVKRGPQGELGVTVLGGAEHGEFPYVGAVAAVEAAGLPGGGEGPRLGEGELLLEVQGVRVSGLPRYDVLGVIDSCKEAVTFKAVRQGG
Chain of DLG4_2, P78352 (P78352 155-259): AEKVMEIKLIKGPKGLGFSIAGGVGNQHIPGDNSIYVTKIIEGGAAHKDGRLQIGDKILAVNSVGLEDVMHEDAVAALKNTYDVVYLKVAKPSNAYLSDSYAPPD

Row | Binder | pKd (GORASP2, Q9H8Y8) | pKd (RAPGEF6, Q8TEU7) | pKd (MAGI1_1, Q96QZ7) | pKd (GRIP1_5, Q9Y3R0) | pKd (MAST2, Q6P0Q8) | pKd (RHPN1, Q8TCX5) | pKd (SCRIB_1, Q14160) | pKd (PDLIM1, O00151) | pKd (PDZRN4_1, Q6ZMN7) | pKd (NHERF4_2, Q86UT5) | pKd (DLG4_2, P78352) | pKd (GRIP1_2, Q9Y3R0) | pKd (LNX1_3, Q8TBB1) | pKd (LIN7A, O14910) | pKd (DLG4_3, P78352) | pKd (DFNB31_3, Q9P202) | pKd (NHERF4_4, Q86UT5) | pKd (GIPC2, Q8TF65) | pKd (RADIL, Q96JH8) | pKd (LNX1_1, Q8TBB1) | further results
1 | B1 | below the threshold | 3.52 | below the threshold | below the threshold | 5.56 | 5.1 | 4.93 | below the threshold | 4.18 | below the threshold | 4.55 | below the threshold | below the threshold | below the threshold | below the threshold | 3.47 | below the threshold | below the threshold | below the threshold | below the threshold | pKd (HTRA1, Q92743): below the threshold; pKd (GRIP1_3, Q9Y3R0): below the threshold; pKd (Inadl_10, Q8NI35): below the threshold; pKd (PDZRN3_1, Q9UPQ7): 4.19; pKd (DVL3, Q92997): below the threshold; pKd (GORASP1, Q9BQQ3): below the threshold; pKd (TJP2_1, Q9UDY2): below the threshold
2 | B2 | below the threshold | below the threshold | below the threshold | below the threshold | 4.83 | below the threshold | below the threshold | below the threshold | below the threshold | below the threshold | 3.59 | below the threshold | below the threshold | 3.52 | below the threshold | below the threshold | below the threshold | below the threshold | 3.56 | 3.92 | pKd (HTRA1, Q92743): below the threshold; pKd (GRIP1_3, Q9Y3R0): below the threshold; pKd (Inadl_10, Q8NI35): 3.59; pKd (PDZRN3_1, Q9UPQ7): below the threshold; pKd (DVL3, Q92997): below the threshold; pKd (GORASP1, Q9BQQ3): below the threshold; pKd (TJP2_1, Q9UDY2): below the threshold
3 | B3 | below the threshold | 3.53 | below the threshold | below the threshold | below the threshold | 3.61 | below the threshold | below the threshold | below the threshold | below the threshold | 3.85 | below the threshold | below the threshold | below the threshold | below the threshold | 4.08 | below the threshold | below the threshold | below the threshold | below the threshold | pKd (HTRA1, Q92743): below the threshold; pKd (GRIP1_3, Q9Y3R0): below the threshold; pKd (Inadl_10, Q8NI35): below the threshold; pKd (PDZRN3_1, Q9UPQ7): below the threshold; pKd (DVL3, Q92997): below the threshold; pKd (GORASP1, Q9BQQ3): below the threshold; pKd (TJP2_1, Q9UDY2): below the threshold
4 | B4 | 3.91 | 3.53 | below the threshold | below the threshold | 5.07 | 3.96 | 3.87 | below the threshold | below the threshold | below the threshold | 4.43 | below the threshold | below the threshold | below the threshold | 3.53 | 3.56 | below the threshold | below the threshold | below the threshold | below the threshold | pKd (HTRA1, Q92743): below the threshold; pKd (GRIP1_3, Q9Y3R0): below the threshold; pKd (Inadl_10, Q8NI35): below the threshold; pKd (PDZRN3_1, Q9UPQ7): below the threshold; pKd (DVL3, Q92997): below the threshold; pKd (GORASP1, Q9BQQ3): below the threshold; pKd (TJP2_1, Q9UDY2): below the threshold
